Assay results as given in US6362395 (WASHINGTON STATE UNIVERSITY RESEARCH FOUNDATION, dated 2002).

Target: calmodulin (unlabeled, as used in the gel mobility-shift and kinase assays of Example 2) (spinach, UniProt P04353 2-149)
Assay: gel mobility-shift, non-denaturing PAGE, 0.5 mM CaCl2

- binding result: no binding
Binder: KLRAAAIASVLSS (peptide, UniProt Q43531 328-340, looked up) [synthetic peptide CCaMK 328-340]
